The values below come from patent US20030068675, “Position dependent recognition of GNN nucleotide triplets by zinc fingers” (published 2003).

Common to all, as to test: EMSA
Holding throughout (details): tags: MBP fusion

The target of one data set is ZFP SBS#258 (synthetic). In a few lines:
(§1)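 Purified ZFP was titrated against labeled double-stranded target (1 nM or lower, at least 10-fold below expected Kd) carrying the natural binding site with flanks. Binding buffer was 10 mM Tris pH 7.5, 100 mM KCl, 1 mM MgCl2, 0.1 mM ZnCl2, 5 mM DTT, 10% glycerol, 0.02% BSA, with equilibration for at least 45 min. Bound and free target were separated on a 10% polyacrylamide gel.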

The target in another data set is T1, ZFP SBS#1049 (synthetic).
T1 chain: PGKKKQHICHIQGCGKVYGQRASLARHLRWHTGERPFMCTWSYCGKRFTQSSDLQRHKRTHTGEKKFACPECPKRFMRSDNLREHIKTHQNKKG
The procedure, abridged:
as §1

For the next data set, the target named is T2, ZFP SBS#1048 (synthetic).
T2 chain: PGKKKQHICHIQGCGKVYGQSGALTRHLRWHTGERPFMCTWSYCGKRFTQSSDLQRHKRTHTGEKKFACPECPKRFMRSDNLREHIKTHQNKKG
The procedure, abridged:
as §1

The target in the next data set is ZFP SBS#1050 (synthetic). The procedure, abridged:
as §1

Another data set concerns the target ZFP SBS#1045 (synthetic). In a few lines: as §1
Another data set deals with T3, ZFP SBS#1047 (synthetic).
T3 chain: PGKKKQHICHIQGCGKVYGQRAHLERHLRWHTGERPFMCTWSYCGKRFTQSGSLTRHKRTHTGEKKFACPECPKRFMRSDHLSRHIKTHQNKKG
In a few lines: as §1

In a further data set the target is ZFP SBS#1046 (synthetic). The procedure, abridged:
as §1

The target of a further data set is ZFP SBS#942 (synthetic, UniProt P08047). The procedure, abridged:
as §1

For another data set, the target named is ZFP SBS#1040 (synthetic, UniProt P08047). In a few lines: as §1
ZFP SBS#1040, sequence (P08047 other isoform, or with tags, fused parts or gaps): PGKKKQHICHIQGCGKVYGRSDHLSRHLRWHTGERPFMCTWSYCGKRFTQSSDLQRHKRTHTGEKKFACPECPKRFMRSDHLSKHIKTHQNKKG
For a further data set, the target named is ZFP SBS#944 (synthetic, UniProt P08047). The procedure, abridged:
as §1

The next data set deals with T4, ZFP SBS#941 (synthetic).
T4 chain: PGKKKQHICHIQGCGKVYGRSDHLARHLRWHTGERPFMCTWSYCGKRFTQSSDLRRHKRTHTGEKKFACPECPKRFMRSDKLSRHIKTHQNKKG
In a few lines: as §1

In the next data set the target is T5, ZFP SBS#1039 (synthetic).
T5 chain: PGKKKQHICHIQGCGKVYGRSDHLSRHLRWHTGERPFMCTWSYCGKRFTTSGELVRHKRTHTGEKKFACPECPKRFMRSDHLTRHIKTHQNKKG
The procedure, abridged: as §1

Another data set deals with T6, ZFP SBS#993 (synthetic, UniProt P08047).
T6 chain: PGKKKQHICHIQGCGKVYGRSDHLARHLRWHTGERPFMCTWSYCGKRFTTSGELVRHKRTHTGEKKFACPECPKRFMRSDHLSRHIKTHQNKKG
The procedure, abridged: as §1

The target in another data set is T7, ZFP SBS#943 (synthetic).
T7 chain: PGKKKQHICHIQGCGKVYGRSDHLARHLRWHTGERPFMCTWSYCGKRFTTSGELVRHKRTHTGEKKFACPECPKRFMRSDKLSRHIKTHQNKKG
The procedure, abridged:
as §1

Another data set has as its target ZFP SBS#1038 (synthetic). The procedure, abridged: as §1
Another data set concerns the target ZFP SBS#1037 (synthetic). The procedure, abridged: as §1
For the next data set, the target named is T8, ZFP SBS#461 (synthetic).
T8 chain: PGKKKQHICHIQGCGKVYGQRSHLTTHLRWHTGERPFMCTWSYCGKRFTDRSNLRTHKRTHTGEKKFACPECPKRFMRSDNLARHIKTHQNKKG
In a few lines:
as §1

A further data set has as its target T9, ZFP SBS#450 (synthetic).
T9 chain: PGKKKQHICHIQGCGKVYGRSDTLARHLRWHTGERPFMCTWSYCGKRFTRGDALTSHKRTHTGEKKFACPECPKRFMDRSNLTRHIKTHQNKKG
The procedure, abridged:
as §1

For another data set, the target named is T10, ZFP SBS#1026 (synthetic).
T10 chain: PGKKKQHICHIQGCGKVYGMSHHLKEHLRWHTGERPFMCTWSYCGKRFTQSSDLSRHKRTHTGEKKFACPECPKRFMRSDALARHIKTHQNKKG
The procedure, abridged: as §1

Another data set deals with T11, ZFP SBS#1053 (synthetic).
T11 chain: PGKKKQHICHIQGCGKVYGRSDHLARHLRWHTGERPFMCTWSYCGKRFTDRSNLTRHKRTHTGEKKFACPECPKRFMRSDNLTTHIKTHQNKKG
In a few lines:
as §1

The target of another data set is T12, ZFP SBS#1052 (synthetic).
T12 chain: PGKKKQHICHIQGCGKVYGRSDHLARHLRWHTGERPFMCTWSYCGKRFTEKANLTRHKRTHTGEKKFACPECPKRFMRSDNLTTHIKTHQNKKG
In a few lines:
as §1

A further data set has as its target T13, ZFP SBS#919 (synthetic).
T13 chain: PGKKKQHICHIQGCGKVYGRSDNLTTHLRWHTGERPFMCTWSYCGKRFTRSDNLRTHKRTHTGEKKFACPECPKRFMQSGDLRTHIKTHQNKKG
In a few lines:
as §1

A further data set deals with T14, ZFP SBS#1041 (synthetic).
T14 chain: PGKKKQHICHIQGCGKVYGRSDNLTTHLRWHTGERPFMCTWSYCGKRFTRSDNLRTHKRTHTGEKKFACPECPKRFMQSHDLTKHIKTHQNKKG
The procedure, abridged: as §1

For a further data set, the target named is ZFP SBS#441 (synthetic). The procedure, abridged:
as §1

The target in another data set is ZFP SBS#453 (synthetic). In a few lines:
as §1

The target in another data set is T15, ZFP SBS#1044 (synthetic).
T15 chain: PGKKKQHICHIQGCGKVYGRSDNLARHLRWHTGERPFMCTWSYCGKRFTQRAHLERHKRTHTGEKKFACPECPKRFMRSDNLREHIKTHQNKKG
In a few lines:
as §1

The target in another data set is ZFP SBS#1043 (synthetic). The procedure, abridged: as §1
ZFP SBS#1043 (synthetic), sequence (chain, as listed by the source): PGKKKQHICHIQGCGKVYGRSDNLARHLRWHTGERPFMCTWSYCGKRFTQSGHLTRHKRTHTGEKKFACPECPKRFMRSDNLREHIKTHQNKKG
In a further data set the target is ZFP SBS#1032 (synthetic). The procedure, abridged:
as §1

The target in a further data set is ZFP SBS#988 (synthetic). In a few lines: as §1
ZFP SBS#988 (synthetic), sequence (chain, as listed by the source): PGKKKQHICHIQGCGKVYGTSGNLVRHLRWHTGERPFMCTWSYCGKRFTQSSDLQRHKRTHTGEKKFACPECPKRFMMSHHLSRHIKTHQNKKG
The target of another data set is ZFP SBS#987 (synthetic). The procedure, abridged:
as §1

The next data set concerns the target ZFP SBS#986 (synthetic). The procedure, abridged: as §1
The next data set deals with ZFP SBS#964 (synthetic). In a few lines: as §1
ZFP SBS#964 (synthetic), sequence (chain, as listed by the source): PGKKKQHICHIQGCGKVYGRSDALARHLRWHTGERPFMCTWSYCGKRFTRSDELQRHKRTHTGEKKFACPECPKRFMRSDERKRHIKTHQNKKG
Another data set deals with T16, ZFP SBS#1027 (synthetic, UniProt P08047).
T16 chain: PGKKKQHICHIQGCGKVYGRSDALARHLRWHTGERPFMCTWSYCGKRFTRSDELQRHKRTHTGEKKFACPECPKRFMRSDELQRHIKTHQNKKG
The procedure, abridged: as §1

A further data set has as its target T17, ZFP SBS#1051 (synthetic).
T17 chain: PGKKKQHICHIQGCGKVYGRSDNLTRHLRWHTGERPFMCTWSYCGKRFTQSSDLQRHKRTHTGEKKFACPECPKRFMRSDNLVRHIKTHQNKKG
The procedure, abridged:
as §1

The target of the next data set is T18, ZFP SBS#1034 (synthetic).
T18 chain: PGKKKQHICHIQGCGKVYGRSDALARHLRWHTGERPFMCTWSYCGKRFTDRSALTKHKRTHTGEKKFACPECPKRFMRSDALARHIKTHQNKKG
In a few lines: as §1

The target in a further data set is T19, ZFP SBS#1035 (synthetic).
T19 chain: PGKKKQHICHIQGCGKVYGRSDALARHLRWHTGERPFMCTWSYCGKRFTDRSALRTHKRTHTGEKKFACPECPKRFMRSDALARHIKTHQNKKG
In a few lines: as §1

A further data set addresses T20, ZFP SBS#1033 (synthetic).
T20 chain: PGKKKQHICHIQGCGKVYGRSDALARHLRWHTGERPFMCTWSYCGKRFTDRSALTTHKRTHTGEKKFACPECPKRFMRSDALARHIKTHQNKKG
The procedure, abridged: as §1

ZFP SBS#944, sequence (P08047 other isoform, or with tags, fused parts or gaps): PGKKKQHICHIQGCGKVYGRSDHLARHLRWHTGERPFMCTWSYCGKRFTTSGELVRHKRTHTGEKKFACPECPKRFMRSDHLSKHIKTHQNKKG
ZFP SBS#1032 (synthetic), sequence (chain, as listed by the source): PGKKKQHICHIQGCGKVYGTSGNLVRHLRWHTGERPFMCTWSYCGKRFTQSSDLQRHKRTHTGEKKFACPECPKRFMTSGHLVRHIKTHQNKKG
ZFP SBS#1037 (synthetic), sequence (chain, as listed by the source): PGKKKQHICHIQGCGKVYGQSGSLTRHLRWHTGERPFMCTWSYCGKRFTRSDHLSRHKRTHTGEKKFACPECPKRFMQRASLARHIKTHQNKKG
ZFP SBS#986 (synthetic), sequence (chain, as listed by the source): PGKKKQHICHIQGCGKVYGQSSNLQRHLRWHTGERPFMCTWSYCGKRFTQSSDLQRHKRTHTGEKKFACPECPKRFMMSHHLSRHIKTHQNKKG
ZFP SBS#1045 (synthetic), sequence (chain, as listed by the source): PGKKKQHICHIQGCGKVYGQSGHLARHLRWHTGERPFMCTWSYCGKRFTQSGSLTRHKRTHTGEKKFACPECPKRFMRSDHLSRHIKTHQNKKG
ZFP SBS#942, sequence (P08047 other isoform, or with tags, fused parts or gaps): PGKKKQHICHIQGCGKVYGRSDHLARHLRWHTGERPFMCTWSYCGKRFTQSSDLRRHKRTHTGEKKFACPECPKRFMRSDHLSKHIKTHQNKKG
ZFP SBS#1050 (synthetic), sequence (chain, as listed by the source): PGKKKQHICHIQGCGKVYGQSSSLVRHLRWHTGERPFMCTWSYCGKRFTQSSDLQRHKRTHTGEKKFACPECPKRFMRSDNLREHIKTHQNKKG
ZFP SBS#441 (synthetic), sequence (chain, as listed by the source): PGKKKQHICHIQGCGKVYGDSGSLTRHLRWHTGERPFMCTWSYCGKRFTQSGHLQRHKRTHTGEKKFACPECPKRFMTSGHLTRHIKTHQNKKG
ZFP SBS#1038 (synthetic), sequence (chain, as listed by the source): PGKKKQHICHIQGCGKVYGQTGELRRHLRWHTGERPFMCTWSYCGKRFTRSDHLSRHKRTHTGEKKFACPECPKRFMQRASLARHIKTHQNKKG
ZFP SBS#453 (synthetic), sequence (chain, as listed by the source): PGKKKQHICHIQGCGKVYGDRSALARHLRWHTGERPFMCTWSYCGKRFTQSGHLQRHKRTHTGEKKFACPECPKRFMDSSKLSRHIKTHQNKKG
ZFP SBS#258 (synthetic), sequence (chain, as listed by the source): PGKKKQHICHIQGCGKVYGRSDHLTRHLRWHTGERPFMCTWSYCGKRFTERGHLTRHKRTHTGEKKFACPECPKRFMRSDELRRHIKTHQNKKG

B1: GCGGGCGGG (dsDNA)
DNA 1: GCGGGCGGG
DNA 2: CCCGCCCGC
In the case of B1, the equilibrium dissociation constant (Kd) in the data set with ZFP SBS#258 amounted to 15 nM.

B2: CAGGCTGTA (dsDNA)
DNA 1: CAGGCTGTA
DNA 2: TACAGCCTG
As for B2, the Kd in the data set with ZFP SBS#1049 was determined as 55.6 nM; in the data set with ZFP SBS#1048 it was 1.39 nM; in the data set with ZFP SBS#1050, 0.125 nM.

B3: GGGGCAGGA (dsDNA)
DNA 1: GGGGCAGGA
DNA 2: TCCTGCCCC
With B3, the results for the dissociation constant Kd in the data set with ZFP SBS#1045, in the data set with ZFP SBS#1047 and with ZFP SBS#1046 were 0.15 nM, 24.7 nM and 0.09 nM, respectively.

B4: GGGGCTGGG (dsDNA)
DNA 1: GGGGCTGGG
DNA 2: CCCAGCCCC
In the case of B4, the dissociation constant Kd was 0.13 nM with ZFP SBS#942; 0.05 nM in the data set with ZFP SBS#1040; 0.027 nM with ZFP SBS#944; 0.077 nM in the data set with ZFP SBS#941; 1.37 nM with ZFP SBS#1039; 3.1 nM in the data set with ZFP SBS#993. The molecule also had a dissociation constant (Kd) in the data set with ZFP SBS#943 of 0.067 nM.

B5: GTAGGGGCA (dsDNA)
DNA 1: GTAGGGGCA
DNA 2: TGCCCCTAC
For the molecule B5, the dissociation constant (Kd) with ZFP SBS#1038 came out at 0.152 nM; with ZFP SBS#1037, 0.05 nM.

B6: GAGTACTGTA (dsDNA)
DNA 1: GAGTACTGTA
DNA 2: TACAGTACTC
In turn, B6 displayed a Kd in the data set with ZFP SBS#461 of 120 nM.

B7: GACTTGGTGC (dsDNA)
DNA 1: GACTTGGTGC
DNA 2: GCACCAAGTC
Consider B7, for which the affinity with ZFP SBS#450, expressed as Kd, was 130 nM.

B8: GTGGCTTGT (dsDNA)
DNA 1: GTGGCTTGT
DNA 2: ACAAGCCAC
On to B8, for which, in the data set with ZFP SBS#1026, the Kd turned out to be 0.076 nM.

B9: TAGGACGGG (dsDNA)
DNA 1: TAGGACGGG
DNA 2: CCCGTCCTA
On to B9, for which the values for the dissociation constant Kd with ZFP SBS#1053 and with ZFP SBS#1052 were 0.025 nM and 0.28 nM, respectively.

B10: TCATAGTAG (dsDNA)
DNA 1: TCATAGTAG
DNA 2: CTACTATGA
As to B10, the dissociation constant (Kd) with ZFP SBS#919 amounted to 250 nM; in the data set with ZFP SBS#1041 it was 2.06 nM.

B11: GGTGGAGTCA (dsDNA)
DNA 1: GGTGGAGTCA
DNA 2: TGACTCCACC
Regarding B11, the equilibrium dissociation constant (Kd) with ZFP SBS#441 was 250 nM; with ZFP SBS#453, 150 nM.

B12: CAGGGAGAG (dsDNA)
DNA 1: CAGGGAGAG
DNA 2: CTCTCCCTG
Consider B12, for which the dissociation constant (Kd) with ZFP SBS#1044 is 1.07 nM; in the data set with ZFP SBS#1043, 0.16 nM.

B13: GGTGCTGAT (dsDNA)
DNA 1: GGTGCTGAT
DNA 2: ATCAGCACC
In the case of B13, the Kd in the data set with ZFP SBS#1032 is 0.52 nM; in the data set with ZFP SBS#988, 0.15 nM; with ZFP SBS#987, 33.5 nM; in the data set with ZFP SBS#986, 1.6 nM.

B14: GCGGCGGTG (dsDNA)
DNA 1: GCGGCGGTG
DNA 2: CACCGCCGC
As to B14, the dissociation constant (Kd) in the data set with ZFP SBS#964 is 0.041 nM; in the data set with ZFP SBS#1027, 0.054 nM.

B15: GAGGCTGAG (dsDNA)
DNA 1: GAGGCTGAG
DNA 2: CTCAGCCTC
In the case of B15, the equilibrium dissociation constant (Kd) in the data set with ZFP SBS#1051 amounted to 0.02 nM.

B16: GTGTTCGTG (dsDNA)
DNA 1: GTGTTCGTG
DNA 2: CACGAACAC
As to B16, the figures for the Kd in the data set with ZFP SBS#1034, with ZFP SBS#1035 and in the data set with ZFP SBS#1033 were 14.6 nM, 56 nM and 685 nM, respectively.

Broadly, the Kd is the constant that tells how readily two partners part at equilibrium. Read a high Kd as lower affinity.
